In article PMC7373347 (Current protocols in cell biology, 2020):
Read-outs that look alike come from different tables or passages of the source.

B1: human DHHC15 (Palmitoyl Acyl Transferase, hDHHC15) fused to mVenus (enzyme, UniProt Q96MV8 1-337, looked up)
chain: MRRGWKMALSGGLRCCRRVLSWVPVLVIVLVVLWSYYAYVFELCLVTVLSPAEKVIYLILYHAIFVFFTWTYWKSIFTLPQQPNQKFHLSYTDKERYENEERPEVQKQMLVDMAKKLPVYTRTGSGAVRFCDRCHLIKPDRCHHCSVCAMCVLKMDHHCPWVNNCIGFSNYKFFLQFLAYSVLYCLYIATTVFSYFIKYWRGELPSVRSKFHVLFLLFVACMFFVSLVILFGYHCWLVSRNKTTLEAFCTPVFTSGPEKNGFNLGFIKNIQQVFGDKKKFWLIPIGSSPGDGHSFPMRSMNESQNPLLANEETWEDNEDDNQDYPEGSSSLAVETET
B2: human DHHC15 (Palmitoyl Acyl Transferase, hDHHC15), purified, tag cleaved (enzyme, UniProt Q96MV8 1-337, looked up)
chain: MRRGWKMALSGGLRCCRRVLSWVPVLVIVLVVLWSYYAYVFELCLVTVLSPAEKVIYLILYHAIFVFFTWTYWKSIFTLPQQPNQKFHLSYTDKERYENEERPEVQKQMLVDMAKKLPVYTRTGSGAVRFCDRCHLIKPDRCHHCSVCAMCVLKMDHHCPWVNNCIGFSNYKFFLQFLAYSVLYCLYIATTVFSYFIKYWRGELPSVRSKFHVLFLLFVACMFFVSLVILFGYHCWLVSRNKTTLEAFCTPVFTSGPEKNGFNLGFIKNIQQVFGDKKKFWLIPIGSSPGDGHSFPMRSMNESQNPLLANEETWEDNEDDNQDYPEGSSSLAVETET

Legend:
[1] = target: the molecule itself; experiment: SEC
[2] = target: the molecule itself; experiment: SEC; remark: listed apart in the source

| Protein | stoichiometry N [1] | stoichiometry N [2] |
| --- | --- | --- |
| B1 | 2 | – |
| B2 | – | 2 |
